# Measurements taken from patent US20060002935A1.
# B1: TAR2h-10-55 (protein)
# chain: EVQLLESGGGLVQPGGSLRLSCAASGFPFEWYWMGWVRQAPGKGLEWVSAISGSGDSTYYADSVKGRFTISRDNSKNTLYQQMNSLRAEDAAVYYCAKVKLGGGPNFGYRGQGTLVTVSS
# B2: VH CH/VH CK dual specific Fab like fragment (HEL4 CH / TAR2-5 CK) (bispecific antibody, from a related filing, V domains shown)
# V domain 1: EVQLLESGGGLVQPGGSLRLSCAASGFRISDEDMGWVRQAPGKGLEWVSSIYGPSGSTYYADSVKGRFTISRDNSKNTLYLQMNSLRAEDTAVYYCASALEPLSEPLGFWGQGTLVTVSS
# V domain 2: EVQLLESGGGLVQPGGSLRLSCAASGFTFDLYNMFWVRQAPGKGLEWVSFISQTGRLTWYADSVKGRFTISRDNSKNTLYLQMNSLRAEDTAVYYCAKTLEDFDYWGQGTLVTVSS
# modifications: left off: a dimerising Fc or GST; small tags and cut ends
# Key:
# [1] = target: human TNFR1 on HeLa cells (human) (UniProt P19438); experiment: cell-based or functional assay
# Chain of human TNFR1 on HeLa cells (human) (P19438 30-455): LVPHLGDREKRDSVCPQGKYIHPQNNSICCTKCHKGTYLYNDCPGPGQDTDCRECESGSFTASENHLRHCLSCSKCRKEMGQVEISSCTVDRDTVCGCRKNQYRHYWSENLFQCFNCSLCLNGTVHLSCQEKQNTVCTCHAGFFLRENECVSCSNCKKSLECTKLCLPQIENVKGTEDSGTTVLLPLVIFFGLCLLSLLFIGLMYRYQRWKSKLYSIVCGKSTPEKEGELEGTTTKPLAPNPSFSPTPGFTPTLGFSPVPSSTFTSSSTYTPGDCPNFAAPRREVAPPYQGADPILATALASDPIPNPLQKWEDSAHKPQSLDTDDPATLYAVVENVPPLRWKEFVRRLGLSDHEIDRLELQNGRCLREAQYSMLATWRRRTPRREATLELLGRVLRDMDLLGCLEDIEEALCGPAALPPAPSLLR
# hen egg lysozyme (hen) = hen egg lysozyme (hen) (UniProt P00698); experiment: ELISA on HEL-coated plate, detection via myc tag (9e10) and anti mouse IgG-HRP
# Chain of hen egg lysozyme (hen) (P00698 19-147): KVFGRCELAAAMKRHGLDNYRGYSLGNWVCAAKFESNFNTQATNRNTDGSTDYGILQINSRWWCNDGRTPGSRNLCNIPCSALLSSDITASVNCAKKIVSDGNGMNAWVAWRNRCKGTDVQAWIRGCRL
Binder,"HeLa IL-8 Cell Assay, Activity (IC50) [1]",ELISA signal (hen egg lysozyme (hen))
B1,20 nM,–
B2,–,0.154
